Assay results as given in patent publication US7847064B2, “Methods and compositions for regulating gene expression in plant cells” (Donald Danforth Plant Science Center, priority 2004, dated 2010).

B1: RF2b: bZIP transcription factor isolated through interaction with RF2a, SEQ ID NO:5 (protein)
chain: MQEPKHTDPAAMRGAHHRRARSEVAFRLPDDLDLGGGGAGAFDEIGSEDDLFSTFMDIEKISSGPAAAGGSDRDRAAETSSPPRPKHRHSSSVDGSGFFAAARKDAAASLAEVMEAKKAMTPEQLSDLAAIDPKRAKRILANRQSAARSKERKARYITELERKVQTLQTEATTLSAQLTLFQRDTTGLSAENAELKIRLQAMEQQAQLRDALNDALKQELERLKLATGEMTNSNETYSMGLQHVPYNTPFFPLAQHNAARQNGGTQLPPQFQPPRPNVPNHMLSHPNGLQDIMQQDPLGRLQGLDISKGPLVVKSESSSISASESSSTF
modifications: This sequence was artificially derived and/or created by the inventors.
B2: RF2a: rice bZIP transcription factor, SEQ ID NO:4 (protein)
chain: MNREKSPIPGDGGDGLPPQATRRAGPPAAAAAAEYDISRMPDFPTRNPGHRRAHSEILSLPEDLDLCAAGGGDGPSLSDENDEELFSMFLDVEKLNSTCGASSEAEAESSSAAAHGARPKHQHSLSMDESMSIKAEELVGASPGTEGMSSAEAKKAVSAVKLAELALVDPKRAKRIWANRQSAARSKERKMRYIAELERKVQTLQTEATTLSAQLALLQRDTSGLTTENSELKLRLQTMEQQVHLQDALNDTLKSEVQRLKVATGQMANGGGMMMNFGGMPHQFGGNQQMFQNNQAMQSMLAAHQLQQLQLHPQAQQQQVLHPQHQQQQPLHPLQAQQLQQAARDLKMKSPMGGQSQWGDGKSGSSGN
modifications: This sequence was artificially derived and/or created by the inventors.

How the values were obtained:
[1] = tested on: E fragment of the RTBV promoter; assay: Co-transfection of E::GUS with RF2a and/or RF2b constructs in BY-2 protoplasts; assay type: cell-based, tobacco
Description: Nevertheless, the E fragment may be further stimulated by co-transfecting the BY-2 protoplasts with constructs that encode the RF2a and/or RF2b transcription factors. In this Example, the E fragment was activated in tobacco BY-2 protoplasts by co-transfection of E::GUS with CsVMV::RF2b, CaMV 35S::RF2a and CaMV 35S::RF2a/CsVMV::RF2b using methods well-known in the art.

[2] = tested on: Box II, Box IIm1 and Box IIm2 elements; assay: Surface Plasmon Resonance binding (BIAcore 2000); conditions: for DNA binding behavior (association and dissociation): 1:1 binding with a mass transfer model
Method: To compare the binding affinities of RF2a and RF2b with the Box II element and its mutants, real time Surface Plasmon Resonance (“SPR”) measurements were conducted using a BIAcore 2000 instrument. The binding affinities of RF2a and RF2b to these DNA targets were measured on chips on which biotin labeled-Box II, -Box IIm1 and -Box IIm2 elements were immobilized.
The association and de-association constants were determined using BIAevaluation 3.1 software—using 1:1 binding with a mass transfer model. […] Furthermore, the DNA binding behavior of RF2a and RF2b are quite different from each other. […] The differences in the affinity of RF2a to the Box II element and its mutants, however, are not as dramatic as the differences of RF2b, while the relative order of affinities to the different target elements is the same for both proteins (FIG. 8).

E(Box IIm1) promoter = assay: BY-2 protoplast transient assay, reporter pE(Box IIm1)::GUS with RF2a/RF2b effectors; assay type: cell-based, tobacco; conditions: co-transfection, BY-2 protoplasts
Description: (§1) To illustrate the biological relevance of the differences in the binding affinities described above, the pE::GUS, pE(Box IIm1)::GUS and pE(Box IIm2)::GUS constructs were used as reporters in BY-2 protoplast transient assays. In these assays, CaMV 35S::RF2a, CsVMV::RF2b and CaMV 35S::RF2a/CsVMV::RF2b were used as effectors. All results were normalized against the GFP internal control. The relative GUS activities of different sets of transfection assays are shown in FIG. 9 for the Box IIm1 element, and FIG. 10 for the Box IIm2 element.

E(Box IIm2) promoter = assay: BY-2 protoplast transient assay, reporter pE(Box IIm2)::GUS with RF2a/RF2b effectors; assay type: cell-based, tobacco; conditions: co-transfection, BY-2 protoplasts, normalized against GFP
Description: as §1

[3] = tested on: Nicotiana tabacum cv. Xanthi NN; assay: Phenotype of transgenic tobacco plants overexpressing RF2a or RF2a mutants; assay type: in vivo; conditions: CaMV 35S promoter driven, T1 generation, greenhouse
Description: (Yin et al., 1997; Petruccelli et al., 2001). […] Fifteen or more independent transgenic tobacco lines were developed with the constructs described below through Agrobacterium-mediated transformation.
Plasmids for Agrobacterium-mediated transformation—The fusion genes described above relating to the plant expression constructs comprising RF2a deletion mutants were released from pMON999-derived plasmids using NotI (blunted) and cloned into the binary vector pGA-E::GUS (Petruccelli et al., 2001) using the blunt HindIII site (downstream of a CaMV 35S promoter sequence). The final plasmids were named pGA-E::GUS/P-35S::ΔP, pGA-E::GUS/P-35S::ΔQ, pGA-E::GUS/P-35S::ΔPΔA and pGA-E::GUS/P-35S::ΔPΔQ. A plasmid encoding full-length RF2a, p35S::RF2a, was also constructed using the methods described herein.
Tobacco transformation—the plasmids described above were introduced into Agrobacterium tumefaciens strain LBA4404 and used for tobacco transformation. Leaf discs from Nicotiana tabacum cv. Xanthi NN were transformed with the various plasmids following the protocol of Horsch et al. (1988). At least 15 independent transgenic lines were produced with each gene construct. Transgenic plants were self-fertilized, and T1 seeds were collected. The T1 seeds were germinated on Murashige and Skoog medium (Murashige and Skoog, 1962) with kanamycin (100 mg/L) selection, and Kan^r seedlings were grown in a greenhouse for observation.
The phenotype caused by 35S::RF2a-ΔPΔA was similar to, but less severe than, the phenotype caused by 35S::RF2a-3Δ. […] (FIG. 19(C)).

[4] = tested on: transgenic rice and tobacco plants; conditions: Yin et al., 1997; Petruccelli et al., 2001; cited from earlier work

Molecule	activation of the E fragment by over-expression [1]	DNA binding behavior (association and dissociation) [2]	activity of the E(Box IIm1) promoter compared with the E wild type promoter (E(Box IIm1) promoter)	increase of promoter activity of E(Box IIm1) (E(Box IIm1) promoter; normalized against GFP)	increase of promoter activity of E(Box IIm2) (E(Box IIm2) promoter)	binding affinities to the Box II, Box IIm1 and Box IIm2 elements ([2]; compared to RF2b, biotin labeled elements immobilized on chips)	phenotype of transgenic tobacco plants [3]	appearance and reproduction of overexpressing plants [4]
B1	activated above a strong background expression	binds slowly to the DNA target and releases from the target relatively quickly	as high as the expression of the E wild type promoter in BY-2 protoplasts	about 7 fold	about 5.8 fold	–	–	–
B2	activated above a strong background expression	bind rapidly to the DNA target and slowly dissociates from the target	–	–	–	relatively higher binding affinities	did not exhibit abnormal phenotypes	normal in appearance and reproduction
